# Test results: US20240124595A1 (UNIVERSITY OF SASKATCHEWAN, published 2024)
# Assays:
# [1] = target: T1, recombinant canine IGF2R domains 11-13 Fc fusion protein (canine; human); experiment: competitive Fab-phage ELISA, same protein in solution as competitor
# T1 construct: Soluble Fc fusion expressed in Expi293F; also called canine IGF2R fragment; not shown: human IgG1 Fc from a modified pFUSE-hIgG1-Fc2 vector (Invivogen)
# T1 chain: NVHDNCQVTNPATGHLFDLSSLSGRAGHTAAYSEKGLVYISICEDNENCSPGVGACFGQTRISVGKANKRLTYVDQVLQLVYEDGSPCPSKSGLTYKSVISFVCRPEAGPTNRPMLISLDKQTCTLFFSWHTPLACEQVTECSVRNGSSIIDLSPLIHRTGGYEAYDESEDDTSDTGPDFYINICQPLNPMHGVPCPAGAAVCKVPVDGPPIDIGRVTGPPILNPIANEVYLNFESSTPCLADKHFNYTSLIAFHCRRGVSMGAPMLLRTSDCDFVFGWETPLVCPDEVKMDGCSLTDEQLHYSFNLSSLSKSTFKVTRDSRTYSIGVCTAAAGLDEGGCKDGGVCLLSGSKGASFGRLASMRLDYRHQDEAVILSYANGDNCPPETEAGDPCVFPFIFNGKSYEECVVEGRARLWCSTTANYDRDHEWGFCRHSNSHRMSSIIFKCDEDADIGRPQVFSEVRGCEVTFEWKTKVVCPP
# [2] = target: T2, recombinant murine IGF2R domains 11-13 Fc fusion protein (murine; human, UniProt Q07113 1504-1982); experiment: as above
# T2 construct: Soluble Fc fusion expressed in Expi293F; also called murine IGF2R fragment; not shown: human IgG1 Fc from a modified pFUSE-hIgG1-Fc2 vector (Invivogen)
# [3] = target: T3, recombinant human IGF2R domains 11-13 Fc fusion protein (human, UniProt P11717 1511-1989); experiment: as above
# T3 construct: Soluble Fc fusion expressed in Expi293F; also called human IGF2R fragment; not shown: human IgG1 Fc from a modified pFUSE-hIgG1-Fc2 vector (Invivogen)
# [4] = target: T4, recombinant human IGF2R domains 11-13 Fc fusion protein (UniProt P11717 1511-1989); experiment: ELISA; printed as "IC 50 or EC 50"
# T4 chain: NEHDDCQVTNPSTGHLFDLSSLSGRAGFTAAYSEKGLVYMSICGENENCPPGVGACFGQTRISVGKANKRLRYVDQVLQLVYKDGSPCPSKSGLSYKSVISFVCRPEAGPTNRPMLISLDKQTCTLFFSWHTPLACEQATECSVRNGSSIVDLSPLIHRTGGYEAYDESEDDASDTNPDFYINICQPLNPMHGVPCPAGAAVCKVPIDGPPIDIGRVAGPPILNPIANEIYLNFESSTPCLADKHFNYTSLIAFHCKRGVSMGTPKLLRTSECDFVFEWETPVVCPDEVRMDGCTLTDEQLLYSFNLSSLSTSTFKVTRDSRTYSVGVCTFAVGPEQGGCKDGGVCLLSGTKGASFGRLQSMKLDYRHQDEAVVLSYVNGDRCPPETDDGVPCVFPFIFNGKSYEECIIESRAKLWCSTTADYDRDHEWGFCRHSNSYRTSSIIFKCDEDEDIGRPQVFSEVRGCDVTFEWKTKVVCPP
# [5] = target: T5, recombinant canine IGF2R domains 11-13 Fc fusion protein; experiment: ELISA; printed as "IC 50 or EC 50"
# T5 chain: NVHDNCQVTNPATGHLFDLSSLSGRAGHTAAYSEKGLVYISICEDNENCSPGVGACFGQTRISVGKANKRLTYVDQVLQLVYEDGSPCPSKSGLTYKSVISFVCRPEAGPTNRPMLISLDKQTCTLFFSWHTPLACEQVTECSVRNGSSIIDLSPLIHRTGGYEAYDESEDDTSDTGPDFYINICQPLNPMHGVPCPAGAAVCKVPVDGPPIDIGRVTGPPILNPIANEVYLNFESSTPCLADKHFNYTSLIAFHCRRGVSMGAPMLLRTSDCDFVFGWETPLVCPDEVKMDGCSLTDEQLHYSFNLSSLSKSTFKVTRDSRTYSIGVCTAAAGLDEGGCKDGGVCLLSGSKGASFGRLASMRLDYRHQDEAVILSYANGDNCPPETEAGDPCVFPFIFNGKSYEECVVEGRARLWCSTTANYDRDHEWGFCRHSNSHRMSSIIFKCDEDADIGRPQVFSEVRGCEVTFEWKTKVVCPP
# [6] = target: T6, recombinant murine IGF2R domains 11-13 Fc fusion protein (UniProt Q07113 1504-1982); experiment: ELISA; printed as "IC 50 or EC 50"
# T6 chain: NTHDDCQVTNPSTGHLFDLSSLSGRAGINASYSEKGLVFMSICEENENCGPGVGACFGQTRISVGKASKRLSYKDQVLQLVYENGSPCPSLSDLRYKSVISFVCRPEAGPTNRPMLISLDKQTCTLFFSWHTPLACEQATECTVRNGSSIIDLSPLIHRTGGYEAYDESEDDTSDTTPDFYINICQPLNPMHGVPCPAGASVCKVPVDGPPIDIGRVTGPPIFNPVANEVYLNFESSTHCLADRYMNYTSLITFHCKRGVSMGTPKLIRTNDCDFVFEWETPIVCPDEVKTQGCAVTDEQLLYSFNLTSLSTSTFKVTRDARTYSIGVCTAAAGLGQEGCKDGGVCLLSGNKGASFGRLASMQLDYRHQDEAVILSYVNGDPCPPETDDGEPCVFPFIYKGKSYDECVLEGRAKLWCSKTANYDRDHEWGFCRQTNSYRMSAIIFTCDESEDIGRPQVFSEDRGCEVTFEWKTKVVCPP
# [7] = target: T7, human IGF2R on human osteosarcoma cells (human, UniProt P11717 41-2491); experiment: flow cytometry on human OS cell lines
# T7 construct: whole, on cells; Endogenous receptor on tumour cell lines, not transfected cells; also called OS-33
# [8] = target: T1, recombinant canine IGF2R domains 11-13 …; experiment: ELISA on coated recombinant IGF2R
# [9] = target: T2, recombinant murine IGF2R domains 11-13 …; experiment: ELISA on coated recombinant IGF2R
# [10] = target: T3, recombinant human IGF2R domains 11-13 …; experiment: ELISA on coated recombinant IGF2R
# [11] = target: T3, recombinant human IGF2R domains 11-13 …; experiment: phage ELISA on recombinant IGF2R Fc fusion
# T7 sequence (P11717 41-2491): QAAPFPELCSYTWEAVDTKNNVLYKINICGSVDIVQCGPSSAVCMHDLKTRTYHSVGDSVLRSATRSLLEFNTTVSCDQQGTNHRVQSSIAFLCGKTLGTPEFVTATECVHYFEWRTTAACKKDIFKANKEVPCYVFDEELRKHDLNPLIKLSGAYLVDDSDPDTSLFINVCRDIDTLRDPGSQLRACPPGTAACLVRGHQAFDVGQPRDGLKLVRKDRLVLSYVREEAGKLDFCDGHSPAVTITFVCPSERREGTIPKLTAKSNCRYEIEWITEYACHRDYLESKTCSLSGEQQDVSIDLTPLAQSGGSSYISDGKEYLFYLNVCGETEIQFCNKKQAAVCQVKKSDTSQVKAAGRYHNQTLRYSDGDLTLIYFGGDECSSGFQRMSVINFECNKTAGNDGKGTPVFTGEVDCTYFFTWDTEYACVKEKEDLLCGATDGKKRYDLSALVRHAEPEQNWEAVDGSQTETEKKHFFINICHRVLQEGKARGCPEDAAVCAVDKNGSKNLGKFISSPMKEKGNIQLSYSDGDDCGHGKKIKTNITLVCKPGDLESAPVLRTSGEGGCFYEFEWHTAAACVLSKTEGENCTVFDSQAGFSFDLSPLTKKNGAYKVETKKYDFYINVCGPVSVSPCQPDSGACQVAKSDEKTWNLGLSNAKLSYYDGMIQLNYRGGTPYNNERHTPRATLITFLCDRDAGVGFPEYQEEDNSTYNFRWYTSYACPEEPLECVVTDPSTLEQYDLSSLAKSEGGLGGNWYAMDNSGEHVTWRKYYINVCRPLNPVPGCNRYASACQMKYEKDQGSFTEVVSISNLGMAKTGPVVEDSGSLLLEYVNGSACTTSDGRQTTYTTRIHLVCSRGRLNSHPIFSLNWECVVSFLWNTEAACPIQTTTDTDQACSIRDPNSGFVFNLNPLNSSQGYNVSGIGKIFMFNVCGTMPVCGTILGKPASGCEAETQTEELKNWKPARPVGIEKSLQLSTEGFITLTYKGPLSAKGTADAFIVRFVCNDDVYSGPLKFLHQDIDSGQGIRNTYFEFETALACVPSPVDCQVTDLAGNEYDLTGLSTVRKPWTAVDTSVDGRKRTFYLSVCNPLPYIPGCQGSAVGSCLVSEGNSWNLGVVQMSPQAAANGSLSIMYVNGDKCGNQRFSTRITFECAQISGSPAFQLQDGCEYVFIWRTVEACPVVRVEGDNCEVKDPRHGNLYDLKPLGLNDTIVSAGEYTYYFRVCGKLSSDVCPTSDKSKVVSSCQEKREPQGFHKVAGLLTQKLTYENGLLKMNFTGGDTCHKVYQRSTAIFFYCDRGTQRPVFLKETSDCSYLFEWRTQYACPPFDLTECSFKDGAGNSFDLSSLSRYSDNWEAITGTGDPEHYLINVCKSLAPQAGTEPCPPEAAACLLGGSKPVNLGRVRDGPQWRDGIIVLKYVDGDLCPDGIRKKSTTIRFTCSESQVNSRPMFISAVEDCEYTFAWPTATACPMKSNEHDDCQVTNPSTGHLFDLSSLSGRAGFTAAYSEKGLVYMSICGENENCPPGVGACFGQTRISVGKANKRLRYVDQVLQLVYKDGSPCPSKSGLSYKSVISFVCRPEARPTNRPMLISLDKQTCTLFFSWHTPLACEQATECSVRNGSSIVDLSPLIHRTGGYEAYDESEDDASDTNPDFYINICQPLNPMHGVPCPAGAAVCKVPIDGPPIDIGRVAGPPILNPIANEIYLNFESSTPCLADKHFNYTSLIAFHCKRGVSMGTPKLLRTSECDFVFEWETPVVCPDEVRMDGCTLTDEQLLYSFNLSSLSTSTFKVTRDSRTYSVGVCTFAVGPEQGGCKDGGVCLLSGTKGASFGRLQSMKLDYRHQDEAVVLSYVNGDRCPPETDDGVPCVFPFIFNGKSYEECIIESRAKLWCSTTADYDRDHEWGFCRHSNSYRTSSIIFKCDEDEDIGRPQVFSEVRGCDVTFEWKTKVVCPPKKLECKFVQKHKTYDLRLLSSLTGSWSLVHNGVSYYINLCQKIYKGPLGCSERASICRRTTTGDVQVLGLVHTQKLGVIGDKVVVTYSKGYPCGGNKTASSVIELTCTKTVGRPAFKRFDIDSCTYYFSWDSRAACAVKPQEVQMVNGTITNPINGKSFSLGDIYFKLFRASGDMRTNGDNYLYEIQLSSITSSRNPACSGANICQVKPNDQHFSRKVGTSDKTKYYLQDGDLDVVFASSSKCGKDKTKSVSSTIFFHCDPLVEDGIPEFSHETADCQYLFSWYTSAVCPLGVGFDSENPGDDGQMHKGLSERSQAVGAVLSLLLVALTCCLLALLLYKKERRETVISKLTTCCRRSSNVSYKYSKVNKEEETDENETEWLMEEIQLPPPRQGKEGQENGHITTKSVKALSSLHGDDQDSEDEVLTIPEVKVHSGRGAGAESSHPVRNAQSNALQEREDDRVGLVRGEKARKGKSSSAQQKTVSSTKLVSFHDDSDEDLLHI
Binder,binding result [1],binding result [2],binding result [3],EC50 [4],EC50 [5],EC50 [6],binding result [7],binding result [8],binding result [9],binding result [10],binding result [11]
"IGF2R-Fab-2 (Fab, V domains shown, From the synthetic 4D5-8 (trastuzumab framework) library; also called Fab-phage) VH: EVQLVESGGGLVQPGGSLRLSCAASGFNIKYTYIHWVRQAPGKGLEWVALIDPHYGFTRYADSVKGRFTISADTSKNTAYLQMNSLRAEDTAVYYCSRWYYDHAMDYWGQGTLVTVSS VL: DIQMTQSPSSLSASVGDRVTITCRASQLVDTAVAWYQQKPGKAPKLLIYFASYLYSGVPSRFSGSRSGTDFTLTISSLQPEDFATYYCQQVVYYPPTFGQGTKVEIK",binds,binds,binds,–,–,–,–,–,–,–,–
"IF3 (antibody, human IgG1, kappa, V domains shown, Full-length human IgG1 kappa expressed in Expi293F cells; also called 1F3; IGF2R-IgG#3) VH: EVQLVESGGGLVQPGGSLRLSCAASGFNIKDTYIHWVRQAPGKGLEWVAFIDPIFGDTRYADSVKGRFTISADTSKNTAYLQMNSLRAEDTAVYYCSRWGGDGFYAMDYWGQGTLVTVSS VL: DIQMTQSPSSLSASVGDRVTITCRASQDVNTAVAWYQQKPGKAPKLLIYSASFLYSGVPSRFSGSRSGTDFTLTISSLQPEDFATYYCQQAYFFHHFPPTFGQGTKVEIKR",–,–,–,1.14 nM,3.22 nM,3.06 nM,binds,binds,binds,binds,–
"IGF2R-Fab-3 (Fab, V domains shown, From the synthetic 4D5-8 (trastuzumab framework) library; also called Fab-phage) VH: EVQLVESGGGLVQPGGSLRLSCAASGFNIKDTYIHWVRQAPGKGLEWVAFIDPIFGDTRYADSVKGRFTISADTSKNTAYLQMNSLRAEDTAVYYCSRWGGDGFYAMDYWGQGTLVTVSS VL: DIQMTQSPSSLSASVGDRVTITCRASQDVNTAVAWYQQKPGKAPKLLIYSASFLYSGVPSRFSGSRSGTDFTLTISSLQPEDFATYYCQQAYFFHHFPPTFGQGTKVEIK",binds,binds,binds,–,–,–,–,–,–,–,–
"IGF2R-Fab-1 (Fab, V domains shown, From the naive library (VH3-30 / VK1); also called Fab-phage) VH: EVQLVESGGGVVQPGGSLRLSCAASGFTFSSYAMHWVRQAPGKGLEWVAVISYDGSNKYYADSVKGRFTISRDNSKNTLYLQMNSLRAEDTAVYYCARDDRFFGGMDVWGQGTTVTVSS VL: AIRMTQSPSSLSASVGDRVTITCRASQDISSWLAWYQQKPDKAPKSLIYAASSLEDGVPSRFSGSGSGTDFTLTISSLQAEDFATYYCQQYNTYPWTFGQGTKVEIK",binds,binds,–,–,–,–,–,–,–,–,binds
"IF1 (antibody, human IgG1, kappa, V domains shown, Full-length human IgG1 kappa expressed in Expi293F cells; also called IGF2R-IgG#1; full-size human IgG from Fab1) VH: EVQLVESGGGVVQPGGSLRLSCAASGFTFSSYAMHWVRQAPGKGLEWVAVISYDGSNKYYADSVKGRFTISRDNSKNTLYLQMNSLRAEDTAVYYCARDDRFFGGMDVWGQGTTVTVSS VL: AIRMTQSPSSLSASVGDRVTITCRASQDISSWLAWYQQKPDKAPKSLIYAASSLEDGVPSRFSGSGSGTDFTLTISSLQAEDFATYYCQQYNTYPWTFGQGTKVEIKR",–,–,–,–,–,–,binds,binds,binds,binds,–
